By Kd is commonly meant the free concentration of one partner at which half of the binding sites on the other are occupied at equilibrium, for simple one-to-one binding.

Consider one sequence from article PMC6801465.

The data set deals with EGFR on the cell surface (Huh-7, U87MG, MDA-MB-231) (human) (UniProt P00533). Briefly: flow cytometry. Conditions: 2'-OMe on U, G, C, all A (positions 8, 14, 19, 21, 24) are DNA, Binding buffer: serum-free DMEM + 100 ug/mL tRNA, aptamers denatured 95 C 5 min, snap cooled on ice 10 min, ELONA 1 h (temperature not given).

For “UGCUUUGAUGUCGAUUCGACAGGAGGC [CL-4RNV616]”, the Kd came out at 0.0712 µM (Huh-7 cells), 0.0898 µM (MDA-MB-231 cells) and 0.112 µM (U87MG cells).
